First the molecules themselves.
T1: Human MUC1 protein (human, UniProt P15941 1041-1153, limits assumed)
T1 construct: also called mucin1 antigen; human mucin1
T1 sequence: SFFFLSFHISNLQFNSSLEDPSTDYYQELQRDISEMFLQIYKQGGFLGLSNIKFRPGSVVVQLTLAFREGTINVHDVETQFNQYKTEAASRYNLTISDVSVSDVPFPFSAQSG

T2: C subunit of human MUC1 expressed in HEK293T cells (HEK293T-v1) (human, UniProt P15941 1098-1255, limits assumed)
T2 construct: domain: C subunit of MUC1; also called MUC1-C
T2 sequence (looked up): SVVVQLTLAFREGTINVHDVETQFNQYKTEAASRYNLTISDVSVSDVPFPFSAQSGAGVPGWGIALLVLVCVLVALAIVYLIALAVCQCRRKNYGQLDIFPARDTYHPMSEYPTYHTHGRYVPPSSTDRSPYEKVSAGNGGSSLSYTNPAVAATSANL

B1: scFv-Fc antibody including the scFv 2447_3A09 (Fc fusion)
scFv: EVQLLESGGGLVQPGRSLRLSCAATGFTFDDYAMHWVRQAPGKGLEWVSGISWNSGSIGYADSVKGRFTISRDNAKNSLYLQMNSLRAEDTASYYCAKDVSSGWYWYAFDIWGQGTLVTVSSGGGGSGGGGSGGGASSYELTQDPAVSVALGQTVRITCQGDSLRSYYASWYQQKPGQAPVLVIYGKNNRPSGIPGRFSGSSSGNTASLTVTGAQAEDEADYYCNSRDSGGSVVFGGGTKLTVL
notes: scFv-Fc format as used in the Biacore assay; not shown: Fc part (with any hinge or linker) of the scFv-Fc
B2: scFv-Fc antibody including the scFv 2447_3H08 (Fc fusion)
scFv: EVQLLESGGGLVQPGRSLRLSCAASGFTFDDYAMHWVRQAPGKGLEWVSGISWNSGSIDYADSVKGRFTISRDNSKNTLYLQMNSLRAEDTAVYYCARDRSSGWYTGSFDYWGQGTLVTVSSGGGGSGGGGSGGGASSYELTQDPAVSVALGQTVRITCQGDSLRSYYASWYRQKPGQAPVLVIYGKNNRPSGIPDRFSGSSSGNTASLTIIGAQAEDEADYYCQSRDSSDNRVLFGGGTKVTVL
notes: scFv-Fc format as used in the Biacore assay; not shown: Fc part (and any hinge or linker) of the scFv-Fc
B3: scFv-Fc antibody including the scFv 2447_2H08 (Fc fusion)
scFv: EVQLVQSGAEVKKPGASVKVSCKASGYTFTNYGISWVRQAPGQGLEWMGWISAYNGNTNYAQKLQGRVTMTTDTSTSTAYMELRSLRSDDTAVYYCARDPHILTGYYRGGWFDPWGQGTTVTVSSGGGGSGGGGSGGGASSYELTQDPAVSVALGQTVTITCQGDSLRTSYAGWLQQKPGQAPVLVLYGKTSRPSGIPDRFSGSTSGNTASLTITGAQAEDEAEYFCHSRDSNDNYLEVVFGGGTKLTVL
notes: as for B1
B4: scFv-Fc antibody including the positive control scFv G03 (Fc fusion)
scFv: EVQLVQSGAEVKKPGATVKISCKVSGYTFTSYWMHWVQQAPGKGLEWIGYINPGTGYIEYNQKFKDRVTITADKSTDTAYMELSSLRSEDTAVYYCASSTAPFDYWGQGTLVTVSSGGGGSGGGGSGGGASEIVLTQSPGTLSLSPGERATLSCKASQDIKSYLSWYQQKPGQAPRLLIYYATRLADGIPDRFSGSGSGTDFTLTISRLEPEDFAVYYCLQYDESPYTFGQGTKLEIK
notes: not shown: Fc part (with any hinge or linker) of the scFv-Fc
B5: scFv-Fc antibody including the scFv 2447_3A12 (Fc fusion)
scFv: EVQLVQSGAEVKKPGASVKVSCKASGYTFTSYGISWVRQAPGQGLEWMGWISAYNGNTNYAQKLRGRVTMTTDTSTSTAYMELRSLRSDDTAVYYCARDPHILTGYYRGGWFDPWGQGTLVTVSSGGGGSGGGGSGGGASSYELTQDPAVSVVLGQTVRITCQGDSLRSYYASWYQQKPGQAPVLVIYGKNNRPSGIPDRFSGSSSGNTASLTITGAQAEDEADYYCNSRDSSGNHRVFGGGTKLTVL
notes: as for B1
B6: scFv-Fc antibody including the scFv 2447_3A01 (Fc fusion)
scFv: EVQLLESGGGLVQPGGSLRLSCAASGFTFDDYAMHWVRQAPGKGLEWVSGISWNSGSIVYADFVKGRFTISRDNAKNSLYLQMNSLRAEDTALYYCAKDISSGWYPGTFDYWGQGTLVTVSSGGGGSGGGGSGGGASSYELTQDPAVSVALGQTVRITCQGDSLRSYYASWYQQKPGQAPVLVIYGKNNRPSGIPDRFSGSSSGNTASLTVTGAQAEDEADYYCSSRDSSDDVVFGGGTQLTVL
notes: as for B1
B7: scFv-Fc antibody including the scFv 2447_3C08 (Fc fusion)
scFv: EVQLLESGGGLVQPGGSLRLSCAASGFTFDDYAMHWVRQAPGKGLEWVSGISWNSGSIGYADSVKGRFTISRDNAKNSLYLQMNSLRAEDTALYYCAKDRGSGYEGNYYGMDVWGQGTLVTVSSGGGGSGGGGSGGGASSYELTQDPAVSVALGQTVRITCQGDSLRSYYASWYQQKPGQAPVLVIYGKNNRPSGIPDRFSGTTSGNTASLTITGAQAEDEADYYCNSRDSSGNHYVFGTGTKVTVL
notes: as for B1
B8: scFv-Fc antibody including the scFv 2447_3A08 (Fc fusion)
scFv: EVQLVQSGAEVKKPGASVKVSCKASGYTFTSYGISWVRQAPGQGLEWMGWISAYNGNTNYAQKLQGRVTMTTDTSTSTAYMELRSLRSDDTAVYYCARDRATIFGVVTPFDYWGQGTLVTVSSGGGGSGGGGSGGGASSYELTQDPAVSVALGQTVRITCQGDSIRSYSASWYQQKPGQAPRLVIYGKNNRPSGIPDRVSGSTSGNTASLTVTGAQAEDEADYYCNSRDSSGNRVVFGGGTQLTVL
notes: as for B1
B9: scFv-Fc antibody including the scFv 2447_3B07 (Fc fusion)
scFv: QVQLVESGGVVVQPGGSLRLSCAASGFTFDDYAMHWVRQAPGRGLEWVSLTSWDGGSTYYADSVKGRFTISRDNSKNSLYLQMNSLRAEDTALYYCAKDHSSGWYNGGMDVWGQGTMVTVSSGGGGSGGGGSGGGASSYELTQDPAVSVALGQTVRITCQGDSLRSYYASWYQQKPGQAPVLVIYGKNNRPSGIPDRFSGSSSGNTASLTITGAQAEDEADYYCNSRDSSGNHVVFGGGTKLTVL
notes: as for B1
B10: scFv-Fc antibody including the scFv 2447_3H02 (Fc fusion)
scFv: EVQLLESGGGLVQPGRSLRLSCAASGFTFDDYAMHWVRQAPGKGLEWVSGISWDSGSIGYADSVKGRFTISRDNAKNSLYLQMNSLRAEDTALYYCAKDVSSGWYWYAFDIWGQGTLVTVSSGGGGSGGGGSGGGASSYELTQDPAVSVALGQTVRITCQGDILRSYYASWYQQKPGQAPVLVIYGKNNRPSGIPDRFSGSSSGNTASLTITGAQAEDEADYYCNSRDSSGNRVVFGGGTKLTVL
notes: as for B2
B11: scFv 2447_3A09 (scFv)
scFv: B1 scFv
notes: also called #5
B12: positive control scFv G03 (scFv)
scFv: B4 scFv
B13: scFv 2447_3A12 (scFv)
scFv: B5 scFv
notes: also called #6
B14: scFv 2447_3A01 (scFv)
scFv: B6 scFv
B15: scFv 2447_3A08 (scFv)
scFv: B8 scFv

The source of these data is patent US20250281533A1 (LG CHEM, published 2025).

In the first assay the target is T1, Human MUC1 protein. Briefly: SPR, Biacore T200; scFv-Fc on anti-human IgG (Fc) CM5 chip, human MUC1 protein injected at 25-400 nM. How it is done:
Affinity of scFv-Fc antibody including the scFv for mucin1 antigen was measured using Biacore T200 (GE healthcare). Anti-human IgG (Fc) antibody (GE healthcare, Cat. No. BR-1008-39, final concentration of 25 ug/mL) was applied at a rate of 5 uL/min for 360 seconds on a Series S Sensor Chip CM5 (GE healthcare, Cat. No. BR-1005-30) using an Amine Coupling Kit (GE healthcare, Cat. No. BR-1000-50) and immobilized at about 5000-7000 RU.
For orientation: In SPR one partner is held on a chip, and binding of the other changes the refractive index at the surface.
For B1, the Kd (commonly the free concentration of one partner at which half of the binding sites on the other are occupied at equilibrium, for simple one-to-one binding) is 62.1 nM.
The same measure, in the same setting: with B2 the figure was 39.9 nM.
The molecule B3 showed a Kd of 94.8 nM.
On the same count and under the same terms, for B4 the value was 27.6 nM.
Still for that read-out and setting: with B5 the figure was 13.8 nM; with B6, 51.5 nM.
Take B7: the dissociation constant Kd came to 24 nM.
Same read-out and setting: with B8 the figure was 320 nM; with B9, 51.7 nM.
Still for that read-out and setting: for B10 the value was 58.8 nM.

A further assay addresses T2, C subunit of human MUC1 expressed in …. Briefly: flow cytometry (PE MFI, corrected to G03 at 380 ug/mL) on HEK293T-v1 cells expressing MUC1 C subunit. How it is done:
The soluble scFv prepared in Example 1 was diluted 5-fold to prepare a total of 8 serial dilutions. Each serial dilution was 380 μg/mL, 76 μg/mL, 15.2 μg/mL, 3.04 μg/mL, 0.608 μg/mL, 0.1216 μg/mL, 0.02432 μg/mL, 0.004864 μg/mL. A buffer used in soluble scFv dilution and cell washing was PBS containing 2% FBS and 10 mM EDTA. Four kinds of cells were prepared at a density of 1×10⁶/mL, respectively, and put in a 96 well U-bottom cell culture plate at a density of 1×10⁵/100 μl/well, followed by centrifugation at 1500 RPM for 5 minutes. The soluble scFv prepared previously was treated in an amount of 50 μl/well. The cells were left at 4° C. for 1 hour. 150 μl/well of the cell washing buffer was added thereto and then mixed, followed by centrifugation at 1500 RPM for 5 minutes. The supernatant was discarded, and 200 μl/well of the cell washing buffer was added thereto and then mixed, followed by centrifugation at 1500 RPM for 5 minutes. A goat anti-human IgG Fc-biotin antibody (Invitrogen, A18821) was diluted 500-fold, and 50 μl/well thereof was treated. The cells were left at 4° C. for 20 minutes. 150 μl/well of the cell washing buffer was added thereto and then mixed, followed by centrifugation at 1500 RPM for 5 minutes. The supernatant was discarded, and 200 μl/well of the cell washing buffer was added thereto and then mixed, followed by centrifugation at 1500 RPM for 5 minutes. PE-Streptavidin (BD Pharmigen, 554061) was diluted 1000-fold, and 50 μl/well thereof was treated. The cells were left at 4° C. for 20 minutes. 150 μl/well of the cell washing buffer was added thereto and then mixed, followed by centrifugation at 1500 RPM for 5 minutes. The supernatant was discarded, and 200 μl/well of the cell washing buffer was added thereto and then mixed, followed by centrifugation at 1500 RPM for 5 minutes. 80 μl/well of the cell washing buffer was added and mixed, followed by flow cytometry.
The affinity of the soluble scFv to the mucin1-expressing cells was confirmed by PE MFI values from the results of the flow cytometry. Each cell line without soluble scFv was stained with another fluorescent antibody (Goat anti-human IgG Fc-biotin antibody, PE-Streptavidin), which was used as a negative control value, and each cell line was treated with G03 at a concentration of 380 μg/mL, which was used as a positive control value, and MFI value was corrected as follows: […]
A general note: In flow cytometry, cells or beads pass a laser one at a time.
Regarding B11, the EC50 (in general, the concentration giving half of the maximal effect) came to 1.96 µg/mL.
Same read-out and setting: with B12 the figure was 3.46 µg/mL.
Same read-out and setting: for B13 the value was 1.47 µg/mL; for B14, 4.78 µg/mL; for B15, 1.73 µg/mL.
